Assay results: patent US11912763 (dated 2024)
Numbering of substitutions follows the chain as printed. “And” between values parts separate entries of the source, which are not always exact repeats. Equal entries are not always repeated. Where two headings read alike, the source gives them in different places. Blank lines part the entries; values can stand above or below the binder they belong to.

Legend:
mouse CLDN18.2 [1] = molecular target: T1, mouse CLDN18.2 (mouse, UniProt P56857); experiment: ELISA
T1 chain: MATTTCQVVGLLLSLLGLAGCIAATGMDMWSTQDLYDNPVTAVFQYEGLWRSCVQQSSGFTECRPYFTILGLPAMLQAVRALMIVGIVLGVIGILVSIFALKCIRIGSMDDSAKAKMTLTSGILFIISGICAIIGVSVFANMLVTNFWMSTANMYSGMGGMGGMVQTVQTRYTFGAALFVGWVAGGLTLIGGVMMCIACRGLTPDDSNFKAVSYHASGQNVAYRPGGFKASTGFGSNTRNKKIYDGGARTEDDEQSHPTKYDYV

human CLDN18.2 [2] = molecular target: T2, human CLDN18.2 (human, UniProt P56856); experiment: KinExA
human CLDN18.2 [3] = molecular target: T2, human CLDN18.2; experiment: ELISA
human CLDN18.2 [4] = molecular target: T2, human CLDN18.2; experiment: ELISA; remark: listed apart in the source
human CLDN18.2 [5] = molecular target: T2, human CLDN18.2; experiment: ELISA; remark: listed apart in the source
human CLDN18.2 [6] = molecular target: T2, human CLDN18.2; experiment: ELISA; remark: listed apart in the source
human CLDN18.2 [7] = molecular target: T2, human CLDN18.2; experiment: ELISA; remark: listed apart in the source
human CLDN18.1 [8] = molecular target: T3, human CLDN18.1 (human, UniProt P56856); experiment: ELISA
T3 chain: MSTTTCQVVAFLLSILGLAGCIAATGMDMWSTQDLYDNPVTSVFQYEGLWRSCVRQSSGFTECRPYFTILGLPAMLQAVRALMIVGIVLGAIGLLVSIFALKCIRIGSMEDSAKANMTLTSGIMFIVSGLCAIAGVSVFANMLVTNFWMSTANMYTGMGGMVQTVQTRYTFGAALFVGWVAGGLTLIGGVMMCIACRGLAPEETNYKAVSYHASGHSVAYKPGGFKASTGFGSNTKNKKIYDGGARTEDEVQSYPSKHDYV

human CLDN18.2 [9] = molecular target: T2, human CLDN18.2; experiment: ELISA; remark: listed apart in the source
human CLDN18.2 [10] = molecular target: T2, human CLDN18.2; experiment: ELISA; remark: listed apart in the source
human CLDN18.2 [11] = molecular target: T2, human CLDN18.2; experiment: ELISA; remark: listed apart in the source
human CLDN18.2 [12] = molecular target: T2, human CLDN18.2; experiment: ELISA; remark: listed apart in the source
human CLDN18.2 [13] = molecular target: T2, human CLDN18.2; experiment: ELISA; remark: listed apart in the source
human CLDN18.2 [14] = molecular target: T2, human CLDN18.2; experiment: ELISA; remark: listed apart in the source
mouse CLDN18.2 [15] = molecular target: T1, mouse CLDN18.2; experiment: ELISA
human CLDN18.2 [16] = molecular target: T2, human CLDN18.2; experiment: ELISA, after 14 days at 37C
human CLDN18.1 [17] = molecular target: T3, human CLDN18.1; experiment: ELISA
human CLDN18.2 [18] = molecular target: T2, human CLDN18.2; experiment: ELISA, serum 24 h
human CLDN18.2 [19] = molecular target: T2, human CLDN18.2; experiment: ELISA, serum 0 h
human CLDN18.2 [20] = molecular target: T2, human CLDN18.2; experiment: ELISA, serum 72 h

EC50 (mouse CLDN18.2 [1]): 371 pM | Kd (human CLDN18.2 [2]): 13.3 pM | EC50 (human CLDN18.2 [3]): 164 pM | EC50 (human CLDN18.2 [4]): 208 pM | EC50 (human CLDN18.2 [5]): 690 pM | EC50 (human CLDN18.2 [6]): 157 pM | EC50 (human CLDN18.2 [7]): 117 pM | binding result (human CLDN18.1 [8]): no binding | EC50 (human CLDN18.2 [9]): 420 pM | EC50 (human CLDN18.2 [10]): 380 pM | EC50 (human CLDN18.2 [11]): 510 pM | EC50 (human CLDN18.2 [12]): 360 pM and 690 pM | EC50 (human CLDN18.2 [13]): 200 pM | EC50 (human CLDN18.2 [14]): 151 pM
B1: Ab10 (antibody)
chain 1: QVQLVQSGAEVKKPGSSVKVSCKASGYAFSNYLIEWVKQAPGQGLEWIGLINPGSGGTNYNEKFKGKATITADKSTSTAYMELSSLRSEDTAVYYCARVYYGNSFAYWGQGTLVTVSS
chain 2: DIVMTQSPDSLAVSLGERATISCKSSQSLLNSGNQKNYLTWYQQKPGQPPKLLIYWASTRESGVPDRFSGSGSGTDFTLTISSLQAEDVAVYYCQNDYFYPFTFGQGTKLEIK

EC50 (human CLDN18.2 [12]): 590 pM
B5: LB155 CLDN18.2 arm (antibody)
chain 1: B1 chain 1
chain 2: B1 chain 2

EC50 (human CLDN18.2 [12]): 500 pM
B6: LB195 CLDN18.2 arm (antibody)
chain 1: B1 chain 1
chain 2: B1 chain 2

EC50 (human CLDN18.2 [4]): 62100 pM | binding result (mouse CLDN18.2 [15]): no binding
B7: Ab35 (antibody, V domains shown)
VH: B1 chain 1 with S104T
VL: B1 chain 2 with S32T

EC50 (human CLDN18.2 [6]): 990 pM | EC50 (human CLDN18.2 [16]): 10100 pM | EC50 (human CLDN18.2 [14]): 366 pM
B8: LB321 CLDN18.2 arm (antibody)
chain 1: B1 chain 1
chain 2: B1 chain 2

EC50 (mouse CLDN18.2 [1]): 518 pM | EC50 (human CLDN18.2 [4]): 211 pM
B9: Ab36 (antibody, V domains shown)
VH: B1 chain 1 with S104T
VL: B1 chain 2 with S32T, Q35N, T40A

EC50 (human CLDN18.2 [13]): 219 pM | binding result (human CLDN18.1 [17]): no binding
B13: Ab15 (antibody, V domains shown)
VH: B1 chain 1
VL: DIVMTQSPDSLAVSLGERATINCKSSQSLLNSGNNKNYLAWYQQKPGQPPKLLIYWASTRESGVPDRFSGSGSGTDFTLTISSLQAEDVAVYYCQNDYFYPFTFGQGTKLEIKR

EC50 (human CLDN18.2 [18]): 535 pM | EC50 (human CLDN18.2 [19]): 357 pM | EC50 (human CLDN18.2 [20]): 1200 pM | EC50 (human CLDN18.2 [10]): 740 pM
B14: LB432 CLDN18.2 arm (antibody)
chain 1: B1 chain 1
chain 2: B1 chain 2

The next lines start with the binder.

B2: Ab7 (antibody, V domains shown)
VH: B1 chain 1
VL: B13 VL with N22S, N35Q, A40T, D76H
EC50 (human CLDN18.2 [7]): 282 pM | binding result (human CLDN18.1 [8]): no binding

B3: ADC2 (antibody)
chain 1: B1 chain 1
chain 2: B1 chain 2
modifications: Ab10 MC-VC-PAB-MMAF conjugate
EC50 (human CLDN18.2 [3]): 310 pM

B4: ADC1 (antibody)
chain 1: B1 chain 1
chain 2: B1 chain 2
modifications: Ab10 SMCC-DM1 conjugate
EC50 (human CLDN18.2 [3]): 344 pM

B10: Ab9 (antibody, V domains shown)
VH: B1 chain 1 with I70L, Y95F
VL: B13 VL with N22S, N35Q, A40T, D76H
EC50 (human CLDN18.2 [7]): 339 pM | binding result (human CLDN18.1 [8]): no binding

B11: Ab8 (antibody, V domains shown)
VH: B1 chain 1 with I70L, Y95F
VL: B13 VL with N22S, N35Q, A40T
EC50 (human CLDN18.2 [7]): 227 pM | binding result (human CLDN18.1 [8]): no binding

B12: Ab6 (antibody, V domains shown)
VH: B1 chain 1
VL: B1 chain 2 with Q35N, T40A
EC50 (mouse CLDN18.2 [1]): 594 pM | EC50 (human CLDN18.2 [4]): 220 pM | EC50 (human CLDN18.2 [13]): 222 pM | binding result (human CLDN18.1 [17]): no binding
